Results on eleven molecules are retold here after patent US20200024322A1 (Eli Lilly, published 2020).

In one experiment the target is T1, human GIP receptor (human, UniProt P48546 22-466).
T1 construct: whole, on cells; also called hGIPR; hGIP-R
T1 sequence (looked up): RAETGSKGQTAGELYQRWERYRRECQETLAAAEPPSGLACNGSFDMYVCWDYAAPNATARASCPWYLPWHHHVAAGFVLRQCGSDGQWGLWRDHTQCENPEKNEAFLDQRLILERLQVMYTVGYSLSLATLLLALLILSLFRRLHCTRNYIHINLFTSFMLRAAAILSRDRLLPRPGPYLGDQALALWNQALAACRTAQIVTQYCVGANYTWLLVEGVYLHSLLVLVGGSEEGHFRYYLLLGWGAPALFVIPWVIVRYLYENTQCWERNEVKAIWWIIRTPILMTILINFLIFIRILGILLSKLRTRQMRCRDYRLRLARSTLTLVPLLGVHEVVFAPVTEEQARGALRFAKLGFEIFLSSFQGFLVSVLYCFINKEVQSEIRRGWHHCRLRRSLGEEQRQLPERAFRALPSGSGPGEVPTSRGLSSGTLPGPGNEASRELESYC
Nature of the experiment: [125I]-GIP competition SPA, hGIPR membranes.

In another experiment the target is T2, human glucagon receptor (human, UniProt P47871 26-477).
T2 construct: whole, on cells; also called hGcgR; GcgR
T2 sequence (P47871 26-477): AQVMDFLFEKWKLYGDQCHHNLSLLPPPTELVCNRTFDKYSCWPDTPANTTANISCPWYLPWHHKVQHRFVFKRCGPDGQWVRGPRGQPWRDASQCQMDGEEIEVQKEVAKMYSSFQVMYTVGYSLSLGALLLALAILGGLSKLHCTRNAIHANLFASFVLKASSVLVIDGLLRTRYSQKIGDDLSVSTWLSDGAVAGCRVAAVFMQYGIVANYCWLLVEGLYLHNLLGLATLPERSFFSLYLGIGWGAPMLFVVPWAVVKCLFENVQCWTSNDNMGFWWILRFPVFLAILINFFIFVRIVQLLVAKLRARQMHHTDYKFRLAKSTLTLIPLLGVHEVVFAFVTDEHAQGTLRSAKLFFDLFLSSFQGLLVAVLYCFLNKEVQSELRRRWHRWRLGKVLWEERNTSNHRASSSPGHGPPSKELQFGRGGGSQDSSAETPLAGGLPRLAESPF
Nature of the experiment: [125I]-Gcg competition SPA, hGcgR membranes.

The target in another experiment is T3, human GLP-1 receptor (human, UniProt P43220 24-463).
T3 construct: whole, on cells; also called hGLP-1R; hGLP1R
As to the kind of experiment: [125I]-GLP-1 competition SPA, hGLP-1R membranes. An outline of the steps: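 Kᵢ values are geometric means (SEM) over replicates run on separate days, derived from IC₅₀ of four-parameter curve fits. Buffer: HEPES 25 mM pH 7.4 with CaCl₂ 2.5 mM, MgCl₂ 1 mM, bacitracin 0.1%, TWEEN-20 0.003%, EDTA-free protease inhibitors.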

Numbered stars: 1 amine (or outer) side, 2 acyl side, 3 side chain; on linkers, the order of the positions; unused ones are H or OH. Square brackets hold non-standard residues; d marks the D form. Side chains are listed from the residue outwards. Ends that are not written are not given here. * marks the point of attachment. C18 diacid = O=C(O)CCCCCCCCCCCCCCCCC(=O)*; γGlu = O=C(O)[C@H](CCC(=O)[*:2])N[*:1]; AEEA = NCCOCCOCC(=O)O; Aib = CC(C)(N)C(=O)O

B1: Example 316 (peptide)
peptide: Y[Aib]EGTFTSDYSILLDKK([AEEA-AEEA-γGlu-C18 diacid])AQ[Aib]AFIEYLIAGGPSSGAPPPS-NH2
modifications: N-terminus assumed
SMILES: CC[C@H](C)[C@H](NC(=O)[C@H](CC(C)C)NC(=O)[C@H](Cc1ccc(O)cc1)NC(=O)[C@H](CCC(=O)O)NC(=O)[C@@H](NC(=O)[C@H](Cc1ccccc1)NC(=O)[C@H](C)NC(=O)C(C)(C)NC(=O)[C@H](CCC(N)=O)NC(=O)[C@H](C)NC(=O)[C@H](CCCCNC(=O)COCCOCCNC(=O)COCCOCCNC(=O)CC[C@H](NC(=O)CCCCCCCCCCCCCCCCC(=O)O)C(=O)O)NC(=O)[C@H](CCCCN)NC(=O)[C@H](CC(=O)O)NC(=O)[C@H](CC(C)C)NC(=O)[C@H](CC(C)C)NC(=O)[C@@H](NC(=O)[C@H](CO)NC(=O)[C@H](Cc1ccc(O)cc1)NC(=O)[C@H](CC(=O)O)NC(=O)[C@H](CO)NC(=O)[C@@H](NC(=O)[C@H](Cc1ccccc1)NC(=O)[C@@H](NC(=O)CNC(=O)[C@H](CCC(=O)O)NC(=O)C(C)(C)NC(=O)[C@@H](N)Cc1ccc(O)cc1)[C@@H](C)O)[C@@H](C)O)[C@@H](C)CC)[C@@H](C)CC)C(=O)N[C@@H](C)C(=O)NCC(=O)NCC(=O)N1CCC[C@H]1C(=O)N[C@@H](CO)C(=O)N[C@@H](CO)C(=O)NCC(=O)N[C@@H](C)C(=O)N1CCC[C@H]1C(=O)N1CCC[C@H]1C(=O)N1CCC[C@H]1C(=O)N[C@@H](CO)C(N)=O
Take B1: the Ki in the experiment with human GIP receptor is 0.0418 nM; with human glucagon receptor, 654 nM; with human GLP-1 receptor, 0.957 nM.

B2: Example 307 (peptide)
peptide: YXEGTXTSDYSILLDEKAQXAFIEYLIEGGPSSG
modifications: Aib2; αMeF6; K17((2-[2-(2-Amino-ethoxy)-ethoxy]-acetyl)2-(γ-Glu)-CO-(CH2)16-CO2H); Aib20; C-terminal NH2
Regarding B2, the Ki was 0.0773 nM with human GIP receptor, 117 nM with human glucagon receptor and 5.1 nM with human GLP-1 receptor.

B3: Example 302 (peptide)
peptide: YXEGTXTSDYSILLDKKAQXAFIEYLIEGGPSSG
modifications: Aib2; αMeF(2F)6; K17((2-[2-(2-Amino-ethoxy)-ethoxy]-acetyl)2-(γ-Glu)-CO-(CH2)16-CO2H); Aib20; C-terminal NH2
As to B3, the figures for the Ki with human GIP receptor, with human glucagon receptor and with human GLP-1 receptor were 0.0289 nM, 18.5 nM and 0.617 nM, respectively.

B4: Example 313 (peptide)
peptide: YXEGTXTSDYSILLDKKAQXAFIEYLIAGGPSSG
modifications: Aib2; αMeF(2F)6; K17((2-[2-(2-Amino-ethoxy)-ethoxy]-acetyl)2-(γ-Glu)-CO-(CH2)16-CO2H); Aib20; C-terminal NH2
As for B4, the Ki with human GIP receptor worked out at 0.0261 nM; with human glucagon receptor, 27.6 nM; in the experiment with human GLP-1 receptor, 0.815 nM.

B5: Example 309 (peptide)
peptide: YXEGTXTSDYSILLDKKAQXAFIEYLIAGGPSSG
modifications: Aib2; αMeF6; K17((2-[2-(2-Amino-ethoxy)-ethoxy]-acetyl)2-(γ-Glu)-CO-(CH2)16-CO2H); Aib20; C-terminal NH2
B5: the inhibition constant Ki came out at 0.0264 nM in the experiment with human GIP receptor, 64.1 nM with human glucagon receptor and 1.04 nM in the experiment with human GLP-1 receptor.

B6: Example 311 (peptide)
peptide: YXEGTXTSDYSILLDEKAQXAFIEYLIEGGPSSG
modifications: Aib2; αMeF(2F)6; K17((2-[2-(2-Amino-ethoxy)-ethoxy]-acetyl)2-(γ-Glu)-CO-(CH2)16-CO2H); Aib20; C-terminal NH2
For B6, the Ki with human GIP receptor was 0.0497 nM; in the experiment with human glucagon receptor it was 115 nM; with human GLP-1 receptor, 11.5 nM.

B7: Example 308 (peptide)
peptide: YXEGTXTSDYSILLDKKAQXEFIEYLIEGGPSSG
modifications: Aib2; αMeF6; K17((2-[2-(2-Amino-ethoxy)-ethoxy]-acetyl)2-(γ-Glu)-CO-(CH2)16-CO2H); Aib20; C-terminal NH2
B7: the inhibition constant Ki was 0.0288 nM with human GIP receptor, 94.2 nM with human glucagon receptor and 1.01 nM with human GLP-1 receptor.

B8: Example 310 (peptide)
peptide: YXEGTXTSDYSILLDKKAQXEFIEYLIAGGPSSG
modifications: Aib2; αMeF6; K17((2-[2-(2-Amino-ethoxy)-ethoxy]-acetyl)2-(γ-Glu)-CO-(CH2)16-CO2H); Aib20; C-terminal NH2
In the case of B8, the Ki in the experiment with human GIP receptor amounted to 0.0315 nM; in the experiment with human glucagon receptor, 174 nM; with human GLP-1 receptor, 1.7 nM.

B9: Example 314 (peptide)
peptide: YXEGTXTSDYSILLDKKAQXEFIEYLIAGGPSSG
modifications: Aib2; αMeF(2F)6; K17((2-[2-(2-Amino-ethoxy)-ethoxy]-acetyl)2-(γ-Glu)-CO-(CH2)16-CO2H); Aib20; C-terminal NH2
Take B9: the inhibition constant (Ki) with human GIP receptor was found to be 0.027 nM; with human glucagon receptor, 116 nM; with human GLP-1 receptor it was 0.717 nM.

B10: Example 312 (peptide)
peptide: YXEGTXTSDYSILLDKKAQXEFIEYLIEGGPSSG
modifications: Aib2; αMeF(2F)6; K17((2-[2-(2-Amino-ethoxy)-ethoxy]-acetyl)2-(γ-Glu)-CO-(CH2)16-CO2H); Aib20; C-terminal NH2
Turning to B10, the Ki with human GIP receptor was determined as 0.0348 nM; in the experiment with human glucagon receptor, 106 nM; with human GLP-1 receptor, 1.63 nM.

B11: Example 325 (peptide)
peptide: YXEGTXTSDYSILLDKKAQXAFIEYLIEGGPSSGAPPPS
modifications: Aib2; αMeF(2F)6; K17((2-[2-(2-Amino-ethoxy)-ethoxy]-acetyl)2-(γ-Glu)-CO-(CH2)18-CO2H); Aib20; C-terminal NH2
On to B11, for which the Ki with human GIP receptor amounted to 0.0209 nM; in the experiment with human glucagon receptor, 13 nM; with human GLP-1 receptor it was 0.475 nM.
